The text below walks through data of US20210270842A1 (DYAX, published 2021).

Where “and” joins values, the source holds several entries; their conditions need not be identical. Identical values can stand only once.

Test [1] addresses T1, cleaved high molecular weight kininogen (HMWK) (human, UniProt P01042 19-380; P01042 390-644).
T1 construct: also called cleaved HMWK; 2-chain HMWK
T1 sequence 1: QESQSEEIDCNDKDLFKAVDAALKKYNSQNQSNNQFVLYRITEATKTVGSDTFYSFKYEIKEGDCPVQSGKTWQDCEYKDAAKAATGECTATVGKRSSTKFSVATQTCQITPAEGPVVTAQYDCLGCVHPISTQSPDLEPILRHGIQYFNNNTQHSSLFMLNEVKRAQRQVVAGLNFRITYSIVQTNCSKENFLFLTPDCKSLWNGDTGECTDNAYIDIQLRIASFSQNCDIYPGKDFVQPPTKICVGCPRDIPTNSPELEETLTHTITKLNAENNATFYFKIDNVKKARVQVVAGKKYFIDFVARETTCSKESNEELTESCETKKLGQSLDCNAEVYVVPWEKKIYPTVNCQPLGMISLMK
T1 sequence 2: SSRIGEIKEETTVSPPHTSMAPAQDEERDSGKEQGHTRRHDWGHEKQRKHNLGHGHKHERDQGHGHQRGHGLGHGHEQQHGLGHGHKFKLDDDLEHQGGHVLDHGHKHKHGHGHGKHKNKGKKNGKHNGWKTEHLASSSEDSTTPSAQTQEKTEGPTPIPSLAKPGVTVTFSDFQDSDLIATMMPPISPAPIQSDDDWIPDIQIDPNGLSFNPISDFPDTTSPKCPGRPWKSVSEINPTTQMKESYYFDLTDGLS
In words: sandwich ELISA with coated Fab; value = C, midpoint of the printed 4-P fit; 2-chain HMWK spiked into SBT buffer, analysed in 10% plasma. From the text: (§1) Purified cleaved HMWK was spiked into SBT assay buffer (open circles), SBT assay buffer and analyzed in the presence of 10% plasma (squares), or HMWK-deficient plasma and analyzed in the presence of 10% plasma (triangles). Purified cleaved HMWK was also spiked into assay buffer and analyzed in the presence of 2.5% plasma (diamonds) or HMWK deficient plasma and analyzed in the presence of 2.5% plasma (closed circles). The y-axis presents the ELISA signal in absorbance units, and the x-axis presents the concentration of kininogen in μg/mL.
(§2) The following day, the plate was washed and then blocked with 2% BSA (Protease/IgG free) in PBS buffer. Following a wash, samples containing cleaved HMWK in 0.1% BSA buffer in PBS with 0.05% Tween-20 (2-Chain HMWK assay buffer). Purified protein standards (e.g., 2-chain HMWK, intact HMWK or LMWK) were spiked into HMWK-deficient plasma and diluted 1:320 in 2-chain HMWK assay buffer. Following plate washing with PBST, a mixture of 2 mouse monoclonal antibodies (11H05 and 13B12) at 1 μg/mL in 2-chain HMWK assay buffer were added for 1 hour at room temperature. […] Signal was detected by the addition of 3,3′,5,5′-tetramethylbenzidine (TMB), an HRP substrate. […] Hydrolysis of a TMB substrate was detected using a microplate reader at 450 nm-630 nm (FIG. 3). […] Using these immunoassay conditions, specifically binding to cleaved HMWK was detected.
On the technique in general: In an ELISA, binding on a coated surface is turned into a signal by an enzyme label.

Test [2] addresses T1, cleaved high molecular weight kininogen …. In words: optimized sandwich ELISA: M004-B04 capture, detection 11H05 + 13B12; value = C, midpoint of the printed 4-P fit; in-well concentration. On the procedure: (§3) The following day, the plate was washed and then blocked with 2% BSA (Protease/IgG free) in PBS buffer. Following a wash, samples containing cleaved HMWK in 0.1% BSA buffer in PBS with 0.05% Tween-20 (2-Chain HMWK assay buffer). Purified protein standards (e.g., 2-chain HMWK, intact HMWK or LMWK) were spiked into HMWK-deficient plasma and diluted 1:320 in 2-chain HMWK assay buffer. Following plate washing with PBST, a mixture of 2 mouse monoclonal antibodies (11H05 and 13B12) at 1 μg/mL in 2-chain HMWK assay buffer were added for 1 hour at room temperature. Unbound detection antibodies were washed and a 1:2000 dilution of goat anti-mouse secondary antibody conjugated to horseradish peroxidase (HRP) was added. The assay containing the secondary antibody was incubated for 1 hour at room temperature, and unbound secondary antibody was removed by washing with 2-chain HMWK assay buffer. Signal was detected by the addition of 3,3′,5,5′-tetramethylbenzidine (TMB), an HRP substrate. The reaction was stopped with phosphoric acid. Hydrolysis of a TMB substrate was detected using a microplate reader at 450 nm-630 nm (FIG. 3). […] Using these immunoassay conditions, specifically binding to cleaved HMWK was detected.

Test [3] shares this target. As to the kind of experiment: sandwich ELISA with coated Fab; value = C, midpoint of the printed 4-P fit; 2-chain HMWK spiked into HMWK-deficient plasma, analysed in 10% plasma.
From the text: as §1, §2

For test [4] the target is unchanged. In words: sandwich ELISA with coated Fab; value = C, midpoint of the printed 4-P fit; 2-chain HMWK spiked into HMWK-deficient plasma, analysed in 2.5% plasma.
From the text: as §1, §2

Test [5] deals with T2, intact high molecular weight kininogen (HMWK) (Homo sapiens, UniProt P01042 19-644).
T2 construct: also called intact HMWK; 1-chain HMWK
T2 sequence: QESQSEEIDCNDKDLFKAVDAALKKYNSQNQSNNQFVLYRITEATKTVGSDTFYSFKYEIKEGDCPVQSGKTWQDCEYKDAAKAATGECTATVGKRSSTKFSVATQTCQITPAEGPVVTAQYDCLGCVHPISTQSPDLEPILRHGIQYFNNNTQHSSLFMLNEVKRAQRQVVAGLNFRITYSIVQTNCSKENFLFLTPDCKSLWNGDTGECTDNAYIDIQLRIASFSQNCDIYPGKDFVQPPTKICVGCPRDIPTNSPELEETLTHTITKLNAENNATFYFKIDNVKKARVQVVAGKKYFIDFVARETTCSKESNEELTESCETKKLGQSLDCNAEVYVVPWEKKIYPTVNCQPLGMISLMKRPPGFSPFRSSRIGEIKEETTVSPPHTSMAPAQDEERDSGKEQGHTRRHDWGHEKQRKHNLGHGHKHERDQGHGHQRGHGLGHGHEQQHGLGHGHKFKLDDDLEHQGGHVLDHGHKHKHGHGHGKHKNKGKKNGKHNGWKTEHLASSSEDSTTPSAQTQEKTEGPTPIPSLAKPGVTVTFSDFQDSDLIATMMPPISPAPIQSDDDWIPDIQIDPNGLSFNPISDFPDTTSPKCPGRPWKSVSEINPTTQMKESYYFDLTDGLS
In words: sandwich ELISA: Fab coated on 96-well plate, kininogen titrated, detection 11H05 + 13B12 and goat anti-mouse-HRP; value = C, midpoint of the printed 4-P fit; 1-chain HMWK in SBT buffer; weak signal: only two points drawn (about 0.2 at 200, about 0.5 at 2000), fitted top 0.627 against 2.85 for 2-chain HMWK.
From the text: Purified cleaved HMWK was spiked into SBT assay buffer (circles) or HMWK-deficient plasma (squares). Purified intact HMWK was spiked into SBT assay buffer (triangles). Purified LMWK was spiked into SBT assay buffer (diamonds). The y-axis presents the ELISA signal in absorbance units, and the x-axis presents the concentration of kininogen in μg/mL.
as §3, with “The assay containing the secondary antibody was incubated for 1 hour at room temperature, and unbound secondary antibody was removed by washing with 2-chain HMWK assay buffer.” left out, “The reaction was stopped with phosphoric acid.” left out

B1: 559B-M0004-B04 (Fab, V domains shown)
VH: EVQLLESGGGLVQPGGSLRLSCAASGFTFSFYVMVWVRQAPGKGLEWVSGISPSGGNTAYADSVKGRFTISRDNSKNTLYLQMNSLRAEDTAVYYCARKLFYYDDTKGYFDFWGQGTLVTVSS
VL: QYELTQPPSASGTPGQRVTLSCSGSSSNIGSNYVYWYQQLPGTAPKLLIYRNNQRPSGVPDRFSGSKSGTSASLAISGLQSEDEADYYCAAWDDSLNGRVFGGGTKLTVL
notes: also called M004-B04
By EC50 is commonly meant the midpoint of the concentration-response curve. As to B1, the EC50 was 184 µg/mL in test [1]; 0.00902 µg/mL and 0.0207 µg/mL and 0.0116 µg/mL in test [2]; 165 µg/mL in test [3]; 184 µg/mL in test [4]; 1110 µg/mL in test [5].
